Test results published in patent US20180258158A1 (Bristol-Myers Squibb, published 2018).

What was measured:
[1] = target: T1, human serum albumin (HSA), full length (human, UniProt P02768 25-609); assay: direct binding ELISA, coated HSA, anti-His-HRP; parameters: unit not given here
T1 construct: mature; Immobilized on CM5 chip (SPR) or coated on plates (ELISA)
Protocol: (§1) Direct binding ELISA assays were conducted as follows. Full length human and murine serum albumin at 10ug/ml in PBS were coated on Nunc Maxisorp plates overnight at 4° C. Plates were blocked in casein/PBS buffer. PKE Adnectins were allowed to bind over a 4-point concentration range of 0.032-4 uM for HSA and 0.008-1 uM for MSA. Bound Adnectin was detected by anti-His antibody conjugated with HRP (horseradish peroxidase) diluted 1:1500 in casein/PBS. Plates were developed with TMB substrate and absorbance read at 450 nm. Adnectins were binned as high, medium and low affinity binders based on the observed Ymax of the concentration response curves.

[2] = target: T2, mouse serum albumin (MSA), full length (mouse, UniProt P07724 25-608); assay: direct binding ELISA, coated MSA, anti-His-HRP; parameters: unit not given here
T2 construct: mature; Immobilized on CM5 chip (SPR) or coated on plates (ELISA); also called mouse albumin; murine serum albumin
Protocol: as §1

[3] = target: T1, human serum albumin (HSA), full length; assay: SPR off-rate ratio to parent ADX_7016_A01, HSA, 25 C
Protocol: (§2) Measurements were conducted by SPR and ELISA. SPR was conducted as follows. Full length HSA or mouse albumin was immobilized on a Biacore T series CM5 chip at 15 ug/mL in 10 mM acetate buffer (pH 5.0) buffer using standard NHS/EDC coupling, to a surface density of approximately 1000-1100 RU. For off-rate measurements at 25° C., PKE Adnectins were applied as analytes at 500 nM in HBS-P+(0.01 M HEPES pH 7.4, 0.15 M NaCl, 0.005% v/v Surfactant P20) running buffer at a flow rate of 20ul/min for 120 s over the immobilized albumins, followed by 800 s for dissociation. […] Regeneration of the chip surface between cycles was accomplished with two 30 second pulses of 10 mM Glycine, pH 2.0. Kinetic traces of reference-subtracted sensorgrams were fit to a 1:1 binding model for affinity using the Biaevaluation software. Only the dissociation phase was fit for determination of off-rates.

[4] = target: T2, mouse serum albumin (MSA), full length; assay: SPR off-rate ratio to parent ADX_7016_A01, MSA, 25 C
Protocol: as §2

[5] = target: T1, human serum albumin (HSA), full length; assay: SPR off-rate, immobilized HSA, 500 nM Adnectin, 25 C
Protocol: as §2

[6] = target: T2, mouse serum albumin (MSA), full length; assay: SPR off-rate, immobilized MSA, 500 nM Adnectin, 25 C
Protocol: as §2

T1 sequence (P02768 25-609): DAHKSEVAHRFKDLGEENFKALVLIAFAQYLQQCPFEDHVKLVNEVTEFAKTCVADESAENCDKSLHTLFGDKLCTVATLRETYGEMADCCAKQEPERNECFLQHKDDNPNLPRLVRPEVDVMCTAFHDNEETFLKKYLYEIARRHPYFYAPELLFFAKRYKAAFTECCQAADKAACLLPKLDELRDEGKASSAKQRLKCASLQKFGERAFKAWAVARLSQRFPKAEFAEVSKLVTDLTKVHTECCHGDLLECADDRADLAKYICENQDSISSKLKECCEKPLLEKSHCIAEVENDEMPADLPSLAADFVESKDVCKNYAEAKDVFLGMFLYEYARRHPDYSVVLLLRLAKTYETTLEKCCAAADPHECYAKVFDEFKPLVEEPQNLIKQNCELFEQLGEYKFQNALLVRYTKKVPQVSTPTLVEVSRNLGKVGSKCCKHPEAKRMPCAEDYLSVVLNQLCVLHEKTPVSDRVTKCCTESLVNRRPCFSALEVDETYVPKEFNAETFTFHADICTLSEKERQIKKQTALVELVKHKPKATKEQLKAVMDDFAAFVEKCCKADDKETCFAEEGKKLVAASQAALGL

Row | Binder | HSA DB ELISA (OD450) Ymax obs [1] | HSA DB ELISA (OD450) Ymin obs [1] | MSA DB ELISA (OD450) Ymax obs [2] | MSA DB ELISA (OD450) Ymin obs [2] | HSA kd/Parent kd [3] | MSA kd/Parent kd [4] | koff [5] [s⁻¹] | koff [6] [s⁻¹]
1 | ADX_6727_B01 (K85S) (designed binder, Full His6-tagged entry) MGVSDVPRDLEVVAATPTSLLISWDAPAVTVRYYRITYGREVQKYSDLGPLYIYQEFTVPGSKSTATISGLKPGVDYTITVYAVTGSGESPASSSPISINYRTEIDKPSQHHHHHH | 97 | 94 | 91 | 88 | 1.2 | 1.2 | 0.000321 | 0.000501
2 | ADX_6727_B11 (Q33D/K85S) (designed binder, Full His6-tagged entry) MGVSDVPRDLEVVAATPTSLLISWDAPAVTVRYYRITYGREVDKYSDLGPLYIYQEFTVPGSKSTATISGLKPGVDYTITVYAVTGSGESPASSSPISINYRTEIDKPSQHHHHHH | 12 | 1 | 11 | 1 | 56 | – | 0.0151 | –
3 | ADX_6727_B05 (I43S/K85T) (designed binder, Full His6-tagged entry) MGVSDVPRDLEVVAATPTSLLISWDAPAVTVRYYRITYGREVQKYSDLGPLYSYQEFTVPGSKSTATISGLKPGVDYTITVYAVTGSGESPASSTPISINYRTEIDKPSQHHHHHH | 60 | 4 | 63 | 2 | 28 | 18.2 | 0.00749 | 0.00781
4 | ADX_6727_D01 (K85T) (designed binder, Full His6-tagged entry) MGVSDVPRDLEVVAATPTSLLISWDAPAVTVRYYRITYGREVQKYSDLGPLYIYQEFTVPGSKSTATISGLKPGVDYTITVYAVTGSGESPASSTPISINYRTEIDKPSQHHHHHH | 97 | 88 | 91 | 88 | 1 | 1 | 0.000259 | 0.000433
5 | ADX_6727_C01 (K85A) (designed binder, Full His6-tagged entry) MGVSDVPRDLEVVAATPTSLLISWDAPAVTVRYYRITYGREVQKYSDLGPLYIYQEFTVPGSKSTATISGLKPGVDYTITVYAVTGSGESPASSAPISINYRTEIDKPSQHHHHHH | 98 | 88 | 93 | 90 | 1.1 | 1.2 | 0.000297 | 0.000509
6 | ADX_6727_C07 (R30A/K85S) (designed binder, Full His6-tagged entry) MGVSDVPRDLEVVAATPTSLLISWDAPAVTVRYYRITYGAEVQKYSDLGPLYIYQEFTVPGSKSTATISGLKPGVDYTITVYAVTGSGESPASSSPISINYRTEIDKPSQHHHHHH | 100 | 44 | 94 | 6 | 8 | 7.8 | 0.00218 | 0.00334
7 | ADX_6727_C03 (Y35S) (designed binder, Full His6-tagged entry) MGVSDVPRDLEVVAATPTSLLISWDAPAVTVRYYRITYGREVQKSSDLGPLYIYQEFTVPGSKSTATISGLKPGVDYTITVYAVTGSGESPASSKPISINYRTEIDKPSQHHHHHH | 99 | 31 | 95 | 23 | 4 | 2.8 | 0.00107 | 0.00121

Now from value to binder:

Row | HSA DB ELISA (OD450) Ymax obs [1] | HSA DB ELISA (OD450) Ymin obs [1] | MSA DB ELISA (OD450) Ymax obs [2] | MSA DB ELISA (OD450) Ymin obs [2] | HSA kd/Parent kd [3] | MSA kd/Parent kd [4] | koff [5] [s⁻¹] | koff [6] [s⁻¹] | Binder
8 | 89 | 9 | 67 | 2 | 17 | 8.9 | 0.00468 | 0.0038 | ADX_6727_F03 (I43Y as printed in Table 4; I43A in Table 7) (designed binder, Full His6-tagged entry) MGVSDVPRDLEVVAATPTSLLISWDAPAVTVRYYRITYGREVQKYSDLGPLYAYQEFTVPGSKSTATISGLKPGVDYTITVYAVTGSGESPASSKPISINYRTEIDKPSQHHHHHH
9 | 99 | 20 | 93 | 17 | 5 | 2.8 | 0.00135 | 0.00118 | ADX_6727_D02 (R30N) (designed binder, Full His6-tagged entry) MGVSDVPRDLEVVAATPTSLLISWDAPAVTVRYYRITYGNEVQKYSDLGPLYIYQEFTVPGSKSTATISGLKPGVDYTITVYAVTGSGESPASSKPISINYRTEIDKPSQHHHHHH
10 | 90 | 19 | 91 | 4 | 11 | 12.8 | 0.00298 | 0.0055 | ADX_6727_F06 (L41A/K85T) (designed binder, Full His6-tagged entry) MGVSDVPRDLEVVAATPTSLLISWDAPAVTVRYYRITYGREVQKYSDLGPAYIYQEFTVPGSKSTATISGLKPGVDYTITVYAVTGSGESPASSTPISINYRTEIDKPSQHHHHHH
11 | 19 | 2 | 42 | 1 | 50 | 142 | 0.0134 | 0.0608 | ADX_6727_D10 (Q33D/K85T) (designed binder, Full His6-tagged entry) MGVSDVPRDLEVVAATPTSLLISWDAPAVTVRYYRITYGREVDKYSDLGPLYIYQEFTVPGSKSTATISGLKPGVDYTITVYAVTGSGESPASSTPISINYRTEIDKPSQHHHHHH
12 | 67 | 8 | 85 | 1 | 20 | 14.5 | 0.00546 | 0.00622 | ADX_6727_D06 (Y44A/K85S) (designed binder, Full His6-tagged entry) MGVSDVPRDLEVVAATPTSLLISWDAPAVTVRYYRITYGREVQKYSDLGPLYIAQEFTVPGSKSTATISGLKPGVDYTITVYAVTGSGESPASSSPISINYRTEIDKPSQHHHHHH
13 | 79 | 12 | 87 | 3 | 14 | 14.9 | 0.0037 | 0.00639 | ADX_6727_G01 (L41A) (designed binder, Full His6-tagged entry) MGVSDVPRDLEVVAATPTSLLISWDAPAVTVRYYRITYGREVQKYSDLGPAYIYQEFTVPGSKSTATISGLKPGVDYTITVYAVTGSGESPASSKPISINYRTEIDKPSQHHHHHH
14 | 38 | 2 | 32 | 1 | 53 | 27 | 0.0143 | 0.0116 | ADX_6727_G05 (I43S/K85A) (designed binder, Full His6-tagged entry) MGVSDVPRDLEVVAATPTSLLISWDAPAVTVRYYRITYGREVQKYSDLGPLYSYQEFTVPGSKSTATISGLKPGVDYTITVYAVTGSGESPASSAPISINYRTEIDKPSQHHHHHH
15 | 37 | 2 | 39 | 1 | 52 | 22.8 | 0.0139 | 0.00977 | ADX_6727_H02 (I43S) (designed binder, Full His6-tagged entry) MGVSDVPRDLEVVAATPTSLLISWDAPAVTVRYYRITYGREVQKYSDLGPLYSYQEFTVPGSKSTATISGLKPGVDYTITVYAVTGSGESPASSKPISINYRTEIDKPSQHHHHHH
16 | 56 | 6 | 77 | 2 | 23 | 16.2 | 0.00624 | 0.00694 | ADX_6727_F04 (Y44A/K85A) (designed binder, Full His6-tagged entry) MGVSDVPRDLEVVAATPTSLLISWDAPAVTVRYYRITYGREVQKYSDLGPLYIAQEFTVPGSKSTATISGLKPGVDYTITVYAVTGSGESPASSAPISINYRTEIDKPSQHHHHHH
